In US20060003399A1, “High throughput actin polymerization assay” (Cytokinetics, Inc., priority 2004, published 2006):
Entries after “also recorded” stand apart in the source; their conditions may differ. Read-outs that look alike come from different tables or passages of the source.

B1: 98 N-WASP: amino acids 98-501 of SEQ ID NO:4 (protein, listed as Homo sapiens)
chain: FVYNSPRGYFHTFAGDTCQVALNFANEEEAKKFRKAVTDLLGRRQRKSEKRRDPPNGPNLPMATVDIKNPEITTNRFYGPQVNNISHTKEKKKGKAKKKRLTKADIGTPSNFQHIGHVGWDPNTGFDLNNLDPELKNLFDMCGISEAQLKDRETSKVIYDFIEKTGGVEAVKNELRRQAPPPPPPSRGGPPPPPPPPHNSGPPPPPARGRGAPPPPPSRAPTAAPPPPPPSRPSVAVPPPPPNRMYPPPPPALPSSAPSGPPPPPPSVLGVGPVAPPPPPPPPPPPGPPPPPGLPSDGDHQVPTTAGNKAALLDQIREGAQLKKVEQNSRPVSCSGRDALLDQIRQGIQLKSVADGQESTPPTPAPTSGIVGALMEVMQKRSKAIHSSDEDEDEDDEEDFEDDD
modifications: (1)..(505) FL-N-WASP
B2: 105WASP: amino acids 105-501 of SEQ ID NO:2; WASP lacking the WH1 domain (protein, listed as Homo sapiens)
chain: LVYSTPTPFFHTFAGDDCQAGLNFADEDEAQAFRALVQEKIQKRNQRQSGDRRQLPPPPTPANEERRGGLPPLPLHPGGDQGGPPVGPLSLGLATVDIQNPDITSSRYRGLPAPGPSPADKKRSGKKKISKADIGAPSGFKHVSHVGWDPQNGFDVNNLDPDLRSLFSRAGISEAQLTDAETSKLIYDFIEDQGGLEAVRQEMRRQEPLPPPPPPSRGGNQLPRPPIVGGNKGRSGPLPPVPLGIAPPPPTPRGPPPPGRGGPPPPPPPATGRSGPLPPPPPGAGGPPMPPPPPPPPPPPSSGNGPAPPPLPPALVPAGGLAPGGGRGALLDQIRQGIQLNKTPGAPESSALQPPPQSSEGLVGALMHVMQKRSRAIHSSDEGEDQAGDEDEDDEWD
modifications: (1)..(502) FL-WASP
B3: His6 tagged C. albicans FH1-FH2 domain: C. albicans FOR1 M972 to K1598 (FH1 and FH2 domains), C-terminally tagged with His6 (protein)
chain: MDPKFLQELSLKVGKAEPIQDANNKNQFGGPLSSSPEDVSQKHKTSGDSSDKDKVLSSPISSNDIKSPETGNSTTSSAAPPPPPPPPPPPPPPLPPILGGNNSSAAPPPPPPPPPPPAFLNGSGSVIPPAPPLPPPSSGRSSRSVPSTVTKSSGSAFDKIPRPKKKLKQLHWEKIDHSQVGNSFWNDPNTHTLVDDLMSKGIFDEIELIFAAKEAKKLATKKKEDLDKVTFLARDISQQFSINLHAFNSFSDEEFVLKVLRCDKDVLTNPAVLDFFGKEDIVEITNTLARNFEPYSTDYKTEEITKPEKDPNELQRPDRIYLELMYNLQHYWKSRTRALNVVVNYDKDVYEYVKKLRLIDEAVDSIKNSKHLKGVFEIILAVGNYMNDSAKQAHGFKLSSLQRLSFMKDEKNSMTFLHYVEKVIRTQYPEFLEFINELSCCNEITKFSIENINNDCKEYARAIKNVQSSIDIGNLSDVSKFHPSDRVLKAVLPALPRAKRKAELLLDQANYTMKEFDDLMKYFGEDPTDQFVKNSFISKFTDFMKDFKRVQAENIKREEELRVYEQRKKLLEKPKSSNNGDSNASDQDGESNEGDGGVMDSLLQRLKAAAPTKGESASARKKALMRK
modifications: left off: small tags and cut ends
B4: GST tagged C. albicans FH1-FH2 domain: C. albicans FOR1 M972 to K1598 (FH1 and FH2 domains), N-terminally tagged with GST-TEV (protein)
chain: B3 chain
modifications: left off: a dimerising Fc or GST
notes: C. albicans FOR1 M972 to K1598 (FH1 and FH2 domains), N-terminally tagged with GST-TEV
B5: GST tagged C. albicans FH2 domain: C. albicans FOR1 A1127 to K1598 (FH2 domain only), N-terminally tagged with GST-TEV (protein)
chain: AFDKIPRPKKKLKQLHWEKIDHSQVGNSFWNDPNTHTLVDDLMSKGIFDEIELIFAAKEAKKLATKKKEDLDKVTFLARDISQQFSINLHAFNSFSDEEFVLKVLRCDKDVLTNPAVLDFFGKEDIVEITNTLARNFEPYSTDYKTEEITKPEKDPNELQRPDRIYLELMYNLQHYWKSRTRALNVVVNYDKDVYEYVKKLRLIDEAVDSIKNSKHLKGVFEIILAVGNYMNDSAKQAHGFKLSSLQRLSFMKDEKNSMTFLHYVEKVIRTQYPEFLEFINELSCCNEITKFSIENINNDCKEYARAIKNVQSSIDIGNLSDVSKFHPSDRVLKAVLPALPRAKRKAELLLDQANYTMKEFDDLMKYFGEDPTDQFVKNSFISKFTDFMKDFKRVQAENIKREEELRVYEQRKKLLEKPKSSNNGDSNASDQDGESNEGDGGVMDSLLQRLKAAAPTKGESASARKKALMRK
modifications: left off: a dimerising Fc or GST
notes: C. albicans FOR1 A1127 to K1598 (FH2 domain only), N-terminally tagged with GST-TEV
B6: WASP VCA Domain: VCA domain of WASP (SEQ ID NO:6) (protein, listed as Homo sapiens)
chain: GGRGALLDQIRQGIQLNKTPGAPESSALQPPPQSSEGLVGALMHVMQKRSRAIHSSDEGEDQAGDEDEDDEWDD
modifications: (1)..(74) WASP VCA Domain

Key:
Arp2/3 = test: Activities of WASP/N-WASP proteins (Table 4); assay type: biochemical
Text: The term “variant” or “analogue” generally refers to proteins that are functional equivalents to a native sequence that have similar amino acid sequences and retain, to some extent, one of the activities of the corresponding native protein. Variants/analogues include fragments that retain one or more activities of the corresponding native protein. Examples of WASP and N-WASP activity include, but are not limited to, capacity to: 1) bind Arp2/3 and actin; 2) activate the actin nucleation activity of Arp2/3 (descriptions of assays to detect nucleation activity are provided below); 3) bind an upstream regulator; 4) be regulated by one or more upstream regulators, thereby rendering the WASP or N-WASP protein able to activate the nucleation activity of Arp2/3; and 5) bind downstream regulators initiating signal transduction cascades. Some of the WASP and N-WASP proteins that are provided are able to recapitulate the full activity of WASP or N-WASP, which means that these proteins have all five of the activities just listed. […]
A third class of NPF proteins that can be utilized in some assays include WASP, N-WASP and SCAR proteins that include the WH1 domain but in which the PolyPro region is (e.g., deleted). A fourth class of NPF proteins that can be utilized in some assays are WASP, N-WASP and SCAR deletion mutants in which the PolyPro region is maintained but an N-terminal region (e.g., WH1 domain) is at least partially removed. Some proteins in this class are ones that include the B, CRIB/GBD (WASP and N-WASP), PolyPro and VCA domains, but in which some or all of the WH1 has been removed. One specific example is 98N-WASP, which includes amino acids 98-501 of SEQ ID NO:4. Another specific example is the 105WASP protein, which includes amino acids 105-501 of SEQ ID NO:2 (see FIG. 4B).
As indicated in this table, specific examples of fusion proteins that can be utilized include those that include a segment that encodes full-length WASP or N-WASP, including: Myc-WASP-TAP (SEQ ID NO:14); and Myc-N-WASP-TAP (SEQ ID NO: 16). Examples of fusion proteins that include a WASP or N-WASP deletion mutant domain include: GST-105WASP (SEQ ID NO:18); Myc-105WASP-TAP (SEQ ID NO:20); GST-tev-98N-WASP (SEQ ID NO:22); and Myc-98N-WASP-TAP (SEQ ID NO:24). The TAP tag in these particular fusion proteins has the general structure CBP-tev-ProtA (SEQ ID NO:36). Fusion proteins such as those listed in Table 4 can in some instances be utilized directly, or after one or both of the C- and N-terminal tags are removed. For example, the fusion proteins listed in Table 4 as having a TAP tag can be used once the TAP tag has been cleaved off and/or after the C-terminal tag has been removed.

actin = target: T1, actin (Gallus gallus, UniProt P68139); test: Formin nucleated actin/pyrene-actin polymerization assay; assay type: biochemical, chicken
T1 construct: from tissue
Method: G-Actin: Typically chicken actin was used. G-actin can be purchased from Cytoskeleton, Inc. It can also be purified according to Pardee and Spudich (1982) Methods of Cell Biol. 24:271-89, and subsequently gel filtered as discussed by MacLean-Fletcher and Pollard (1980) Biochem Biophys. Res. Commun. 96:18-27.
Acrylodan-Actin and Pyrene-Actin: Typically chicken actin was utilized. Pyrene labeled actin was prepared according to methods described in Kouyama and Mihashi (1981) Eur. J. Biochem. 114:33-38 or as described by Cooper et al. (1983) J. Muscle Res. Cell Motility 4:253-62. Alternatively, it can be purchased from Cytoskeleton, Inc. Acrylodan-labeled actin was prepared by modification of the pyrene-labeling protocol described in Cooper et al. (1983) J. Muscle Res. Cell Motility 4:253-62.
G-actin and pyrene-actin were prepared as described in Example 7.
Activity of purified formins from the constructs described above in Example 12 was assessed in an actin/pyrene-actin polymerization assay. Polymerization was carried out in G-buffer and was initiated by addition of 10× polymerization mix.
Gel filtered actin and pyrene-actin were diluted in G-buffer to the indicated final concentrations. Either purified C. albicans formin domains or formin domain-enriched fractions were added together with polymerization mix to start actin polymerization. Formin nucleated actin polymerization was monitored on a Gemini plate reader (excitation at 365 nm and emission at 407 nm). Protein components in the actin polymerization assay are provided below.

[1] = Storage stability of purified formin proteins at -80 C; assay type: physicochemical; settings: storage at −80° C.
Method: The formins were purified on either Ni-NTA column (His6 tagged proteins) or Gluthatione-Sepharose (GST tagged proteins). Resins were equilibrated with lysis buffer. Clear crude extracts were loaded onto column, columns were washed with lysis buffer followed by washing buffer (50 mM Tris pH 8.0, 50 mM KCl, 1 mM DTT, 1 mM MgCl, 3% glycerol), and proteins were eluted with either 300 mM imidazole (His6-tagged proteins) or 10 mM glutathione (GS-tagged proteins). Eluted proteins were analyzed by SDS PAGE (4-20%) (Invitrogen, San Diego Calif.), fractions were pooled and protein concentrations were measured by Coomassie Plus (Bradford)(Bio-Rad, Hercules, Calif.). Purified proteins were “drop-frozen” in liquid nitrogen and stored at −80° C.

Molecule	Activate Arp2/3? (Arp2/3)	Regulated By Which Upstream Regulators? (Arp2/3)	time stable at −80° C. [1]	other results
B1	Yes	Cdc42, PIP2, Nck and Rac1	–	Activate Arp2/3? (Arp2/3; listed as 98N-WASP): activate actin nucleation by Arp2/3; Regulated By Which Upstream Regulators? (Arp2/3; listed as 98N-WASP): regulated by Cdc42, PIP2, Nck1, and Rc1
B2	activate actin nucleation by Arp2/3 and Yes	regulated by Cdc42, PIP2, Nck1, and Rc1; also recorded: Cdc42, PIP2, Nck and Rac1	–	–
B3	–	–	several	formin concentration used to observe saturation (actin): 300 to 500 nM; actin nucleation activity of the formin (in words) (actin; actin […], pyrene actin 0.5 μM): active, i.e., nucleates actin polymerization
B4	–	–	more than 6 months	biochemical properties compared with the other formin constructs (in words) (actin): best biochemical properties in terms of solubility, stability and activity; lag phase (actin; 100 nM formin): less than 100 s; time to reach saturation phase (actin; 100 nM formin): 400 s; activity relative to the formin purified in the single step purification (actin; after further purification on SP Sepharose): approximately 3 fold
B5	–	–	several	–
B6	Yes	None	–	–
